Measurements: patent US9359446B2, “Antibody to a carbonic anhydrase” (Hemholtz Zentrum Munchen—Deutches Forschungszentrum Fur …, priority 2010, dated 2016)

Columns and labels:
[1] = test system: A549 lung cancer cells; test: Inhibition of metabolic activity and growth in 3-dimensional A549 tumour spheroids (MTT-assay, pictures); assay type: cell-based, human
Method: Metabolic acitivity of the spheroid was measured two days later by means of a MTT-assay and reading of the extinction at 595 nm (Cory et al. 1991). All data are represented as mean±standard error. Comparisons between non-treated and treated spheroids were performed using t-tests.
A549 lung cancer cells were plated onto a cushion consisting of 1% (v/v) agarose in PBS on a 96-well cell culture plate. […] Instead cells spontaneousely form 3-dimensional structures termed tumour spheroids.
FIG. 7, Upper: Some of the spheroids were cultivated in the presence of EXO 6A10 (final concentration 10 μg/ml) whereas others were cultivated with acetazolamide (AAZ, final concentration 100 μM). Control spheroids were cultivated without any additional treatment (Unbeh.). The metabolic acitivity of the spheroid was measured two days later by means of a MTT-assay as described and reading of the extinction at 595 nm (Cory et al. 1991). For each group, 10 spheroids were included, the mean value, the standard deviation were calculated. All data are represented as mean±standard error. Comparisons between non-treated and treated spheroids were performed using t-tests, calculated using Prism4 (GraphPad Software, La Jolla).
FIG. 7, Lower: A549 spheroids were cultivated for two days with EXO 6A10 or left untreated.

[2] = biological target: T1, CA-XII (Homo sapiens, UniProt O43570); test: Flow cytometry binding to murine L929 cells transfected with human CA-XII; parameters: expressed in transfected cells; host or cells: murine L929 cells
Method: (§1) Murine L929 cells were transfected with an expression plasmid encoding human CA-XII. […] As a control, binding of EXO 6A10 to non-transfected L929-cells was tested (FIG. 10, grey area, L929). […] the binding of membrane localized overexpressed human CA-XII.

[3] = biological target: T1, CA-XII; test: CA-XII inhibition by EXO 6A10 and azetazolamide; assay type: biochemical; settings: compared to sulfonamid azedazolamide
[4] = test system: peripheral blood mononuclear cells (PBMC), melanoma cell lines; test: Flow cytometry binding to peripheral blood mononuclear cells and melanoma cell lines; parameters: species or system human; settings: hybridoma supernatant diluted 1:5
Method: FIG. 4A. Permanent human cancer cell lines were incubated with EXO 6A10 (hybridoma supernatant diluted 1:5 in 2% (v/v) FCS (i.e., fetal calf serum) in PBS) for 15 min on ice, washed three times in PBS/2% (v/v) FCS and then stained with a specific secondary antibody (goat-anti-rat IgG/Cy5) for another 15 min on ice. Binding of 6A10 was then measured by flow cytometry in a Becton Dickinson FACS Calibur device and FlowJo software (Treestar Inc.). An antibody of the identical isotype with an irrelevant specificity (glutathione-S-transferase) was used as control. (grey are=isotype control; black line=EXO 6A10). No binding to peripheral blood mononuclear cells (PBMC) and to two melanoma cell lines (not shown) was detectable. […] Exosomes were isolated from malignant ascites by differential centrifugation (500×g; 10.000×g; 70.000×g) and resuspended in PBS. The protein concentration was measured in a standard Bradford assay. 2 μg protein were pipetted onto a nitrocellulose membrane. Membranes were incubated with the different primary antibodies. After washing, membranes were incubated with a specific secondary antibodiy (anti-rat IgG/peroxidase). Ganglioside GM1 was detected with cholera toxine subunit B/peroxidase. Membranes were developed with the ECL system.

[5] = biological target: CA-II (Homo sapiens, UniProt P00918); test: EXO 6A10 inhibition of CA II; assay type: biochemical
[6] = test system: non-transfected L929-cells; test: Flow cytometry binding to non-transfected L929 cells (control); parameters: species or system murine
Method: as §1

T1 sequence (O43570 25-354): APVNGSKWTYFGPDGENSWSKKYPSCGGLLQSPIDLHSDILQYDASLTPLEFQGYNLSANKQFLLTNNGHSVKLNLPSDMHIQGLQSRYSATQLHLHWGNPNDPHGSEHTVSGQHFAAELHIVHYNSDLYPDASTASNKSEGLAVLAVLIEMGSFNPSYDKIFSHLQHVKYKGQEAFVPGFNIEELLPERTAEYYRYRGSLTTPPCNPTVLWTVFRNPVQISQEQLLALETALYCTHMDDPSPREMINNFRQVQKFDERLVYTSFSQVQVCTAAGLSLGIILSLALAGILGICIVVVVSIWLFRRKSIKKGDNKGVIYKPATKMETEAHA

- binding to L929 cells transfected with human CA-XII [2]: binds to transfected
- inhibition of CA-XII enzyme activity relative to azedazolamide [3]: 40 times
- inhibition of CA-II [5]: does not significantly inhibit
B1: EXO 6A10: rat monoclonal antibody raised to human CA-XII; CDRs SEQ ID NOs 1 to 6, VH SEQ ID NO. 7, VL SEQ ID NO. 8 (protein)
light: MARVFQQDDIVMTQTPATLSVTPGESVSLSCRASQGISTSIHWYQQKSNESPRLLIKFASQSISGIPSRFSGSGSGTDFTLSINRVESEDFSVYFCQQTYSLPYTFGAGTKLELKRADGCTNCIHLSRRSPTIFSAAMENRCSSFILSRFSGCILKLILRTMLTTSSGTVVGG
VH: EVKLEESGPGLVQPSETLSLTCTVSGFSLTTYSVSWVRQPSGKGPEWMGRMWYDGDTVYNSALKSRLSISRDTSKNQVFLKMNSLETDETGTYYCTRDFGYFDGSSPFDYWGQGVMVTVSSAETTAPSVYPLAPGTALKSNSMVTLGCLVKILLKNSSHPEDLAAALPIVSRITPDGYGVQAQVLKQLILFTMRKKQ
- metabolic activity of spheroids (MTT-assay, extinction at 595 nm) ([1]; A549 spheroids, 10 μg/ml, two days): inhibition of metabolic activity
- size and density of A549 spheroids ([1]; cultivated for two days, versus untreated spheroids): much smaller and much more dense
- growth of tumour cell line A549 ([1]; hypotoxic culture conditions): inhibits the growth
- binding to PBMC and two melanoma cell lines [4]: No binding
- binding to non-transfected L929 cells [6]: not to non-transfected cells
